From paper doi:10.1101/2025.10.30.685675v2

Tested on: CCCC(=O)Oc1ccc([N+](=O)[O-])cc1
Assay: purified protein
Conditions: pH 8.0; 25.0 °C

Which Km does the source give for SfDLH (Solimonas fluminis) here?
Its Km is 160 µM.
